Positions count from the first letter of the chain named.
T1: mouse CD33 Fc fusion protein (mouse, UniProt Q63994 18-240, limits assumed)
T1 construct: also called mCD33-Fc
T1 sequence: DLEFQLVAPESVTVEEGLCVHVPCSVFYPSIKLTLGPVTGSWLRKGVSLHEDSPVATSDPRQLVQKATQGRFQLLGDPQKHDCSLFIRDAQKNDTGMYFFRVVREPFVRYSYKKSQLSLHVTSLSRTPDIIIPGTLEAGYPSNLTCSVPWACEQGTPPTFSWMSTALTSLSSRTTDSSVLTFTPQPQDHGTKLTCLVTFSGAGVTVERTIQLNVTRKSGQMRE

B1: C-30 (antibody, V domains shown)
VH: QVQLVQSGAEVKKPGASVKVSCKASGYTFTSYYMHWVRQAPGQGLEWMGVINPSGGSTSYAQKFQGRVTMTRDTSTSTVYMELSSLRSEDTAVYYCAREEAVAADLGVDVWGQGTTVTVSS
VL: not shown
B2: C-26 (antibody, V domains shown)
VH: QLQLQESGPGLVKPSETLSLTCTVSGGSISSNSYYWGWIRQPPGKGLEWIGSIYYSGSTYYNPSLKSRVTISVDTSKNQFSLKLSSVTAADTAVYYCARSPVYYDSSGYFQYYGMDVWGQGTTVTVSS
VL: EIVLTQSPATLSLSPGERATLSCRASQSVSSYLAWYQQKPGQAPRLLIYDASKRATGIPARFSGSGSGTDFTLTISSLEPEDFAVYYCQQSIVWPPFTFGGGTKVEIK
notes: human IgG1
B3: C-50 (antibody, V domains shown)
VH: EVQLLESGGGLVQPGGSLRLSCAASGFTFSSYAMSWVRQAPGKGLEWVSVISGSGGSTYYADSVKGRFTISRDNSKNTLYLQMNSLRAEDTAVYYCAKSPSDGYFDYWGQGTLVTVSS
VL: DIQMTQSPSSVSASVGDRVTITCRASQGISSWLAWYQQKPGKAPKLLIYAASSLQSGVPSRFSGSGSGTDFTLTISSLQPEDFATYYCQQAFDFPITFGGGTKVEIK
notes: human IgG1
B4: C-64 (antibody, V domains shown)
VH: QVQLVQSGAEVKKPGSSVKVSCKASGGTFSSLAISWVRQAPGQGLEWMGGIIPIFGTANYAQKFQGRVTITADESTSTAYMELSSLRSEDTAVYYCARGTFYSDELFDYWGQGTLVTVSS
VL: B3 VL with A91E, F92N, D93S, F94Y, I96L
notes: human IgG1
B5: C-25 (antibody, V domains shown)
VH: EVQLVESGGGLVQPGGSLRLSCAASGFTFSSYWMSWVRQAPGKGLEWVANIKSDGSEKYYVDSVKGRFTISRDNAKNSLYLQMNSLRAEDTAVYYCAREGFRDGINWFDPWGQGTLVTVSS
VL: B3 VL with V11L, G28S, S31R, W32Y, A34N, A91Q, D93L, F94T
notes: human IgG1
B6: C-28 (antibody, V domains shown)
VH: EVQLVESGGGLVQPGGSLRLSCAASGFTFSSYWMSWVRQAPGKGLEWVANINQDGSEKYYVDSVKGRFTISRDNAKNSLYLQMNSLRAEDTAVYYCAREGRRTMNAFDIWGQGTMVTVSS
VL: B3 VL with V11L, G28S, W32Y, A34N, A50G, A91G, F92Y, F94V
notes: human IgG1
B7: C-34 (antibody, V domains shown)
VH: B6 VH with E99D, G100H, R101G, R102A, M104G, N105P, A106D, I109L, Q112R, M115L
VL: B3 VL with V11L, G28S, W32Y, A34N, A50G, A91Q, F92Y, D93L, F94T, I96L
notes: human IgG1
B8: C-33 (antibody, V domains shown)
VH: EVQLVESGGGLVQPGGSLRLSCAASGFTFSSYWMSWVRQAPGKGLEWVANIKSDGSEKYYVDSVKGRFTISRDNAKNSLYLQMNSLRAEDTAVYYCAREGRPRLGYAAFDIWGQGTMVTVSS
VL: B3 VL with V11L, G28S, W32Y, A34N, A91Q, F92Y, F94L
notes: human IgG1
B9: C-32 (antibody, V domains shown)
VH: EVQLVESGGGLVQPGGSLRLSCAASGFTFSSYWMSWVRQAPGKGLEWVANIKSDGSEKYYVDSVKGRFTISRDNAKNSLYLQMNSLRAEDTAVYYCARGPSEAAAAKDFDLWGRGTLVTVSS
VL: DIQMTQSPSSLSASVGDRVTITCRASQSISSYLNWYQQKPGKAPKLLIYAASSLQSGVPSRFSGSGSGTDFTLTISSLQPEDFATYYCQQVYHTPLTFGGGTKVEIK
notes: human IgG1
B10: C-51 (antibody, V domains shown)
VH: QLQLQESGPGLVKPSETLSLTCTVSGGSISSSSYYWGWIRQPPGKGLEWIGSIYYSGSTYYNPSLKSRVTISVDTSKNQFSLKLSSVTAADTAVYYCARGAPHDYGGGVGWFDPWGQGTTVTVSS
VL: B3 VL with S53N, A91S, F92R, D93V, I96W
notes: human IgG1
B11: C-47 (antibody, V domains shown)
VH: QVQLVESGGGVVQPGRSLRLSCAASGFTFSSYGMHWVRQAPGKGLEWVAVISYDGSNKYYADSVKGRFTISRDNSKNTLYLQMNSLRAEDTAVYYCARGPYYSYTDTAWFDPWGQGTLVTVSS
VL: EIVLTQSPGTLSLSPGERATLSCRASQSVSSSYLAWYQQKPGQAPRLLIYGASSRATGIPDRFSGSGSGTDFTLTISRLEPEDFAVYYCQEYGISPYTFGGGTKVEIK
notes: human IgG1

Each binder was assayed against T2, human CD33 (human, UniProt P20138 18-364) (assay: cell-based or functional assay).
T2 sequence (P20138 18-364): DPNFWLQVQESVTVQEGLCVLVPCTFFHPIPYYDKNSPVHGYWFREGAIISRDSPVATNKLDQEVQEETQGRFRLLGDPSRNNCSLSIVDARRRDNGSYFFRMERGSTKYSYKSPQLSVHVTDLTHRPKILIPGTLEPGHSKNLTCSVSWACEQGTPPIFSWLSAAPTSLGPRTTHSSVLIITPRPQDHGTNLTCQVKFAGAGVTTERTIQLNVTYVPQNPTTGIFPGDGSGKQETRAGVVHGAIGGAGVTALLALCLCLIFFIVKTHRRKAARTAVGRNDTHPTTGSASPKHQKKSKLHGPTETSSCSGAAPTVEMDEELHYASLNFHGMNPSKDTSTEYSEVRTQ

Binder	Percent CD33 Surface Expression, DC % CD33 [%]	Percent CD33 Surface Expression, Macrophage % CD33 [%]	Percent CD33 Surface Expression, Monocyte % CD33 [%]
B1	21	41.3	43
B2	18.8	45.1	33
B3	87	–	85.3
B4	31	40.5	29.5
B5	22.3	41.9	35.4
B6	14.8	40.2	29.2
B7	20.1	38	42.5
B8	18.4	43.1	51.4
B9	17.3	43.2	33.5

The binders below were run against T3, human CD33 Fc fusion protein (human, UniProt P20138 18-259) (assay: ForteBio BLI or MSD-SET).
T3 construct: also called hCD33-Fc; human CD33/Fc chimera (R&D Systems)
T3 sequence (P20138 18-259 limits assumed): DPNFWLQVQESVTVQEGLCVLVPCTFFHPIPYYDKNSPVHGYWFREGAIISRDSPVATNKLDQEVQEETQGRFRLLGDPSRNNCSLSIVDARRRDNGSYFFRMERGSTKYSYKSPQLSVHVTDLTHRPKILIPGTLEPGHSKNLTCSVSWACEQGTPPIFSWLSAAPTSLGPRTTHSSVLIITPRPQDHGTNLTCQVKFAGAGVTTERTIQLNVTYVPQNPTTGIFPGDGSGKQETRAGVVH

Binder	binding result
B3	no binding (tested: 100 nM)
B10	no binding (tested: 100 nM)
B11	no binding (tested: 100 nM)

These binders were tested against T4, human monomeric His tagged CD33 protein (human, UniProt P20138 18-259) (assay: ForteBio BLI or MSD-SET).
T4 construct: also called hCD33-His
T4 sequence (P20138 18-259 limits assumed): as above

Binder	binding result
B3	no binding (tested: 100 nM)
B10	no binding (tested: 100 nM)
B11	no binding (tested: 100 nM)

These binders were tested against T1, mouse CD33 Fc fusion protein (assay: ForteBio BLI or MSD-SET).

Binder	binding result
B1	no binding (tested: 100 nM)
B2	no binding (tested: 100 nM)
B5	no binding (tested: 100 nM)
B6	no binding (tested: 100 nM)
B7	no binding (tested: 100 nM)
B8	no binding (tested: 100 nM)
B9	no binding (tested: 100 nM)

What follows are binders tested against T3, human CD33 Fc fusion protein (assay: ForteBio BLI or MSD-SET, IgG, avid;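 further: Anti-CD33 IgG affinity by BLI, IgG captured on AHQ sensors with antigen in solution and a one-to-one kinetic fit, or by MSD solution equilibrium titration with quadratic fit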).

Binder	Kd [nM]
B1	0.985
B2	0.388
B5	1.85
B6	1.02
B7	1.21
B8	0.954
B9	1.63

These binders were tested against T1, mouse CD33 Fc fusion protein (assay: ForteBio BLI or MSD-SET, IgG, avid;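 further: Anti-CD33 IgG affinity by BLI, IgG captured on AHQ sensors with antigen in solution and a one-to-one kinetic fit, or by MSD solution equilibrium titration with quadratic fit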).

Binder	Kd [nM]
B3	0.445
B10	2.72
B4	25.8
B11	1.09

These binders were tested against T2, human CD33 (assay: flow cytometry, human primary T cells;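 further: binding of anti-CD33 antibodies at 10 ug/ml to human primary T cells, 1 h on ice, detected with PE-labelled secondary antibody, read as flow cytometry MFI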).
Protocol: (§1) Initial characterization of CD33 antibodies involved determining their ability to bind CD33 expressed on a CHO cell line, on human primary monocytes, human primary macrophages, human primary dendritic cells, and on human primary T cells. Cells were harvested, plated at 10⁶/ml in a 96 well plate, and incubated in 100 ul PBS containing 2% FBS, 2 mM EDTA and 10 ug/ml Mab and Fc blocking reagent for 1 hour in ice. Cells were washed twice and incubated in 100 ul PBS containing 2% FBS, 2 mM EDTA and 5 ug/ml PE-conjugated secondary antibody for 30 minutes on ice. Cells were washed twice in cold PBS and analyze by flow cytometry on a BD FACS Canto. Data analysis and calculation of MFI values was performed with FlowJo (TreeStar) software version 10.0.7.

Binder	T cell MFI
B1	240
B2	198
B3	112
B4	188
B5	187
B6	402
B7	216
B8	228
B9	248

The binders below were run against T2, human CD33 (assay: flow cytometry, human primary monocytes;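 further: binding of anti-CD33 antibodies at 10 ug/ml to human primary monocytes, 1 h on ice, detected by PE-labelled secondary antibody, flow cytometry readout as mean fluorescence intensity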).
Design: reference not given here

Binder	Monocyte MFI
B1	169
B2	188
B3	54
B4	188
B5	139
B6	143
B7	157
B8	133
B9	133

These binders were tested against T2, human CD33 (assay: flow cytometry, human primary macrophages;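 further: binding of CD33 antibodies at 10 µg/ml to human primary macrophages, 1 h on ice, detected with PE-labelled secondary antibody by flow cytometry, reported as MFI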).
Protocol: as §1

Binder	Macrophage MFI
B1	1060
B2	926
B3	496
B4	1040
B5	877
B6	811
B7	862
B8	753
B9	855

These binders were tested against T2, human CD33 (assay: flow cytometry, human primary dendritic cells;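 further: binding of anti-CD33 antibodies (10 ug/ml, 1 h on ice) to human primary dendritic cells, detected with a PE-labelled secondary antibody, reported as flow cytometry MFI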).

Binder	DC MFI
B1	1660
B2	1960
B3	307
B4	1300
B5	1790
B6	1780
B7	1440
B8	1590
B9	1460

Each binder was assayed against T4, human monomeric His tagged CD33 protein (assay: ForteBio BLI or MSD-SET, IgG, monomeric antigen;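 further: BLI: antibodies captured on AHQ sensors, 100 nM antigen association 5 min, dissociation 5 min, 1:1 fit. MSD-SET: antigen fixed at 50 pM, antibody titrated, quadratic fit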).
Protocol: The binding affinity of each anti-CD33 antibody was determined by measuring their KD by ForteBio or MSD-SET. […] Briefly, ForteBio affinity measurements were performed by loading IgGs on-line onto AHQ sensors. Sensors were equilibrated off-line in assay buffer for 30 min and then monitored on-line for 60 seconds for baseline establishment. Sensors with loaded IgGs were exposed to 100 nM antigen for 5 minutes, then transferred to assay buffer for 5 min for off-rate measurement. Kinetics were analyzed using the 1:1 binding model.
Solution equilibrium titrations (SET) were performed in PBS+0.1% IgG-Free BSA (PBSF) with antigen held constant at 50 pM and incubated with 3-to 5-fold serial dilutions of antibody starting at 10 nM. Antibodies (20 nM in PBS) were coated onto standard bind MSD-ECL plates overnight at 4° C. or at room temperature for 30 min. Plates were then blocked for 30 min with shaking at 700 rpm, followed by three washes with wash buffer (PBSF+0.05% Tween 20). SET samples were applied and incubated on the plates for 150s with shaking at 700 rpm followed by one wash. Antigen captured on a plate was detected with 250 ng/mL sulfotag-labeled streptavidin in PBSF by incubation on the plate for 3 min. The plates were washed three times with wash buffer and then read on the MSD Sector Imager 2400 instrument using 1× Read Buffer T with surfactant. The percent free antigen was plotted as a function of titrated antibody in Prism and fit to a quadratic equation to extract the KD. To improve throughput, liquid handling robots were used throughout MSD-SET experiments, including SET sample preparation.

Binder	Kd [nM]
B1	4.12
B2	1.57
B4	7.1
B5	8.78
B6	4
B7	4.44
B8	3.91
B9	7.82

What follows are binders tested against T3, human CD33 Fc fusion protein (assay: RBC adhesion to plate-bound CD33-Fc; antibody 0.5 ug/ml;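 further: Plate-coated CD33-Fc preincubated 1 h with antibody, then red blood cells added for 1 h at room temperature, adherent cells lysed and quantified via peroxidase activity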).

Binder	Percent RBC Binding to CD33 [%]
B1	14.2
B2	19.2
B3	118
B10	96.6
B4	93.5
B5	11.3
B6	14
B7	14.4
B8	9.36
B9	12.5
B11	112

Each binder was assayed against T3, human CD33 Fc fusion protein (assay: RBC adhesion to plate-bound CD33-Fc; antibody 1.0 ug/ml;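 further: red blood cells adhering to plate-coated CD33-Fc after 1 h antibody pretreatment, then 1 h at room temperature, bound cells read as peroxidase activity after lysis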).

Binder	Percent RBC Binding to CD33 [%]
B1	8.9
B2	15.2
B3	95.3
B10	129
B4	90.4
B5	10.1
B6	9.65
B7	9.86
B8	6.32
B9	7.86
B11	142
